Assay results published in paper PMC8383118.

B1: paratox (Prx) from S. pyogenes MGAS315 (natural protein)
chain: MLTYDEFKQAIDRGYITADTVMIVRKNGQIFDYVLPNEKIKNGEIVTDEKVEEVLVELSR

Columns and labels:
[1] = molecular target: fluorescently labeled S. mutans XIP (dansyl-GLDWWSL) (Streptococcus mutans); assay: other fluorescence titration; 0.2 μM dansyl-XIP with increasing ComR, 1 h, room temperature, dark; 20 mM HEPES pH 7.5, 100 mM NaCl, 1 mM β-ME; dansyl emission intensity
[2] = molecular target: ComR S. mutans, full length (Streptococcus mutans)
[3] = molecular target: ComR:dansyl-XIP complex (Streptococcus mutans); assay: fluorescence polarisation; steady-state fluorescence anisotropy of 0.2 μM dansyl-XIP with 0.5 μM ComR and increasing Prx, 1 h, room temperature; 20 mM HEPES pH 7.5, 100 mM NaCl, 1 mM β-ME
[4] = molecular target: ComR S. mutans DNA-binding domain (DBD) construct (Streptococcus mutans); assay: ITC; 300 μM Prx (or PrxD32A) injected into 20 μM ComR S. mutans or DBD, 25 °C, gel filtration buffer (20 mM Tris-HCl pH 7.5, 100 mM NaCl, 1 mM β-ME); one site model
[5] = molecular target: ComR S. mutans, full length (Streptococcus mutans); assay: as above

| Molecule | Kd [1] [nM] | EMSA: Prx needed for complete inhibition (no DNA band shift) of 4 μM ComR with 8 μM XIP and FAM-labeled comS promoter probe; Prx added with or before XIP (apo-ComR) [2] [µM] | EMSA: Prx needed for complete inhibition (no DNA band shift) when added after the ComR:XIP:DNA complex was allowed to form (activated ComR) [2] [µM] | Kd [3] [nM] | Kd [4] [nM] | dH [4] [kcal/mol] | stoichiometry N [4] | Kd [5] [nM] | dH [5] [kcal/mol] | stoichiometry N [5] |
| --- | --- | --- | --- | --- | --- | --- | --- | --- | --- | --- |
| ComR S. mutans, full length (receptor) | 320 |  |  |  |  |  |  |  |  |  |
| B1 |  | 6 | 2 | 700 | 50 | -20.8 | 1 | 390 | -11.8 | 1 |
